# Assay results reported in IntAct's records for PubMed 20153263.
# B1: Protein ENL (Homo sapiens), Q03111 (parent)
# chain: MDNQCTVQVRLELGHRAQLRKKPTTEGFTHDWMVFVRGPEQCDIQHFVEKVVFWLHDSFPKPRRVCKEPPYKVEESGYAGFIMPIEVHFKNKEEPRKVCFTYDLFLNLEGNPPVNHLRCEKLTFNNPTTEFRYKLLRAGGVMVMPEGADTVSRPSPDYPMLPTIPLSAFSDPKKTKPSHGSKDANKESSKTSKPHKVTKEHRERPRKDSESKSSSKELEREQAKSSKDTSRKLGEGRLPKEEKAPPPKAAFKEPKMALKETKLESTSPKGGPPPPPPPPPRASSKRPATADSPKPSAKKQKKSSSKGSRSAPGTSPRTSSSSSFSDKKPAKDKSSTRGEKVKAESEPREAKKALEVEESNSEDEASFKSESAQSSPSNSSSSSDSSSDSDFEPSQNHSQGPLRSMVEDLQSEESDEDDSSSGEEAAGKTNPGRDSRLSFSDSESDNSADSSLPSREPPPPQKPPPPNSKVSGRRSPESCSKPEKILKKGTYDKAYTDELVELHRRLMALRERNVLQQIVNLIEETGHFNVTNTTFDFDLFSLDETTVRKLQSCLEAVAT
# partner: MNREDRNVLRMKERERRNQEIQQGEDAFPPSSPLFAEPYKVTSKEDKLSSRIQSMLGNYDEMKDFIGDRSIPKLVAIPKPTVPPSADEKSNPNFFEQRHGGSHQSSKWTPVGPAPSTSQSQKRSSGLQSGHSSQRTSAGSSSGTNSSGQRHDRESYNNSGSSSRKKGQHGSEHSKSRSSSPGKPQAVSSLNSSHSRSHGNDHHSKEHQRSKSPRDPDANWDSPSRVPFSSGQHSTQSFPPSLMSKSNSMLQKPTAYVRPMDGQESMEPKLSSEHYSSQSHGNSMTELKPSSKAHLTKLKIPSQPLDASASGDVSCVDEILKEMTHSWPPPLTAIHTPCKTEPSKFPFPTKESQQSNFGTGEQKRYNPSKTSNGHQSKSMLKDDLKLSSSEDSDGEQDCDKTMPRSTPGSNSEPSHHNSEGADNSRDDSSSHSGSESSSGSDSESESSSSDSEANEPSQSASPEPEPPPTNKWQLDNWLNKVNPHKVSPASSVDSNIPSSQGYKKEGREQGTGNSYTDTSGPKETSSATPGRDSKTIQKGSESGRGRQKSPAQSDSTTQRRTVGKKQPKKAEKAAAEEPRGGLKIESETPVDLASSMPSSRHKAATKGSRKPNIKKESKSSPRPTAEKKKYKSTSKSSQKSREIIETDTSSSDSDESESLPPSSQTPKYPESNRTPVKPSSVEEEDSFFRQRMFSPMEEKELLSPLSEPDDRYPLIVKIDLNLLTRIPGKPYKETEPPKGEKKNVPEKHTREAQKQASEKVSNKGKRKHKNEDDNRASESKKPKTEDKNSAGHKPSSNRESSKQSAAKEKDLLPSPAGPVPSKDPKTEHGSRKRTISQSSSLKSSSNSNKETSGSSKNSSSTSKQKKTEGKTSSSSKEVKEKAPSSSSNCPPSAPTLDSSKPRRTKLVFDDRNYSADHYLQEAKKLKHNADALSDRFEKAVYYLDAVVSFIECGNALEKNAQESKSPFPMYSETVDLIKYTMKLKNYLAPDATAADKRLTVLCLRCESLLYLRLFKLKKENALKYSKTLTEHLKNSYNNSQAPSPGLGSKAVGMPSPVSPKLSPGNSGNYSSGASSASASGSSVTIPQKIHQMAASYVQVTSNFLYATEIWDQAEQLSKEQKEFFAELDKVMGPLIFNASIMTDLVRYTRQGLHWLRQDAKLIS
# B2: Protein AF-9 (Homo sapiens), P42568 (parent)
# chain: MASSCAVQVKLELGHRAQVRKKPTVEGFTHDWMVFVRGPEHSNIQHFVEKVVFHLHESFPRPKRVCKDPPYKVEESGYAGFILPIEVYFKNKEEPRKVRFDYDLFLHLEGHPPVNHLRCEKLTFNNPTEDFRRKLLKAGGDPNRSIHTSSSSSSSSSSSSSSSSSSSSSSSSSSSSSSSSSSSSSSSSSSTSFSKPHKLMKEHKEKPSKDSREHKSAFKEPSRDHNKSSKESSKKPKENKPLKEEKIVPKMAFKEPKPMSKEPKPDSNLLTITSGQDKKAPSKRPPISDSEELSAKKRKKSSSEALFKSFSSAPPLILTCSADKKQIKDKSHVKMGKVKIESETSEKKKSTLPPFDDIVDPNDSDVEENISSKSDSEQPSPASSSSSSSSSFTPSQTRQQGPLRSIMKDLHSDDNEEESDEVEDNDNDSEMERPVNRGGSRSRRVSLSDGSDSESSSASSPLHHEPPPPLLKTNNNQILEVKSPIKQSKSDKQIKNGECDKAYLDELVELHRRLMTLRERHILQQIVNLIEETGHFHITNTTFDFDLCSLDKTTVRKLQSYLETSGTS
# partner: B1 partner
# B3: Protein AF-9 (Homo sapiens), P42568 (parent)
# chain: B2 chain
# B4: Protein ENL (Homo sapiens), Q03111 (parent)
# chain: B1 chain
# Variants of: B1
# Details: with aff4_human AFF4, Q9UHB7
row,effect of a mutation on the interaction,Variant
1,disrupting interaction,MDNQCTVQVRLELGHRAQLRKKPTTEGFTHDWMVFVRGPEQCDIQHFVEKVVFWLHDSFPKPRRVCKEPPYKVEESGYAGFIMPIEVHFKNKEEPRKVCFTYDLFLNLEGNPPVNHLRCEKLTFNNPTTEFRYKLLRAGGVMVMPEGADTVSRPSPDYPMLPTIPLSAFSDPKKTKPSHGSKDANKESSKTSKPHKVTKEHRERPRKDSESKSSSKELEREQAKSSKDTSRKLGEGRLPKEEKAPPPKAAFKEPKMALKETKLESTSPKGGPPPPPPPPPRASSKRPATADSPKPSAKKQKKSSSKGSRSAPGTSPRTSSSSSFSDKKPAKDKSSTRGEKVKAESEPREAKKALEVEESNSEDEASFKSESAQSSPSNSSSSSDSSSDSDFEPSQNHSQGPLRSMVEDLQSEESDEDDSSSGEEAAGKTNPGRDSRLSFSDSESDNSADSSLPSREPPPPQKPPPPNSKVSGRRSPESCSKPEKILKKGTYDKAYTDELVELHRRLMALRERNVLQQIVNLIEETGHFNVTNTTFDFDLFSLDETTVRKEQSCLEAVAT [L550E]

# Variants of: B2
# Details: with aff4_human AFF4, Q9UHB7
row,effect of a mutation on the interaction,Variant
1,decreasing interaction,MASSCAVQVKLELGHRAQVRKKPTVEGFTHDWMVFVRGPEHSNIQHFVEKVVFHLHESFPRPKRVCKDPPYKVEESGYAGFILPIEVYFKNKEEPRKVRFDYDLFLHLEGHPPVNHLRCEKLTFNNPTEDFRRKLLKAGGDPNRSIHTSSSSSSSSSSSSSSSSSSSSSSSSSSSSSSSSSSSSSSSSSSTSFSKPHKLMKEHKEKPSKDSREHKSAFKEPSRDHNKSSKESSKKPKENKPLKEEKIVPKMAFKEPKPMSKEPKPDSNLLTITSGQDKKAPSKRPPISDSEELSAKKRKKSSSEALFKSFSSAPPLILTCSADKKQIKDKSHVKMGKVKIESETSEKKKSTLPPFDDIVDPNDSDVEENISSKSDSEQPSPASSSSSSSSSFTPSQTRQQGPLRSIMKDLHSDDNEEESDEVEDNDNDSEMERPVNRGGSRSRRVSLSDGSDSESSSASSPLHHEPPPPLLKTNNNQILEVKSPIKQSKSDKQIKNGECDKAYLDELVELHRRLMTLRERHILQQIVNLIEETGHFHITNTTFDFDLCSLDKTTVRKEQSYLETSGTS [L558E]

# Variants of: B3
# Details: with dot1l_human DOT1L
row,effect of a mutation on the interaction,Variant
1,decreasing interaction,MASSCAVQVKLELGHRAQVRKKPTVEGFTHDWMVFVRGPEHSNIQHFVEKVVFHLHESFPRPKRVCKDPPYKVEESGYAGFILPIEVYFKNKEEPRKVRFDYDLFLHLEGHPPVNHLRCEKLTFNNPTEDFRRKLLKAGGDPNRSIHTSSSSSSSSSSSSSSSSSSSSSSSSSSSSSSSSSSSSSSSSSSTSFSKPHKLMKEHKEKPSKDSREHKSAFKEPSRDHNKSSKESSKKPKENKPLKEEKIVPKMAFKEPKPMSKEPKPDSNLLTITSGQDKKAPSKRPPISDSEELSAKKRKKSSSEALFKSFSSAPPLILTCSADKKQIKDKSHVKMGKVKIESETSEKKKSTLPPFDDIVDPNDSDVEENISSKSDSEQPSPASSSSSSSSSFTPSQTRQQGPLRSIMKDLHSDDNEEESDEVEDNDNDSEMERPVNRGGSRSRRVSLSDGSDSESSSASSPLHHEPPPPLLKTNNNQILEVKSPIKQSKSDKQIKNGECDKAYLDELVELHRRLMTLRERHILQQIVNLIEETGHFHITNTTFDFDLCSLDKTTVRKEQSYLETSGTS [L558E]

# Variants of: B4
# Details: with dot1l_human DOT1L
row,effect of a mutation on the interaction,Variant
1,decreasing interaction,MDNQCTVQVRLELGHRAQLRKKPTTEGFTHDWMVFVRGPEQCDIQHFVEKVVFWLHDSFPKPRRVCKEPPYKVEESGYAGFIMPIEVHFKNKEEPRKVCFTYDLFLNLEGNPPVNHLRCEKLTFNNPTTEFRYKLLRAGGVMVMPEGADTVSRPSPDYPMLPTIPLSAFSDPKKTKPSHGSKDANKESSKTSKPHKVTKEHRERPRKDSESKSSSKELEREQAKSSKDTSRKLGEGRLPKEEKAPPPKAAFKEPKMALKETKLESTSPKGGPPPPPPPPPRASSKRPATADSPKPSAKKQKKSSSKGSRSAPGTSPRTSSSSSFSDKKPAKDKSSTRGEKVKAESEPREAKKALEVEESNSEDEASFKSESAQSSPSNSSSSSDSSSDSDFEPSQNHSQGPLRSMVEDLQSEESDEDDSSSGEEAAGKTNPGRDSRLSFSDSESDNSADSSLPSREPPPPQKPPPPNSKVSGRRSPESCSKPEKILKKGTYDKAYTDELVELHRRLMALRERNVLQQIVNLIEETGHFNVTNTTFDFDLFSLDETTVRKEQSCLEAVAT [L550E]
